{"source": "paper PMC3763534", "conditions_in_all_cases": "20 mM Hepes pH 7.5, 100 mM KAc, 200 mM KCl, 3 mM MgCl2, 1 mM TCEP; 37 C, 20 min; RNA folded in 20 mM Hepes pH 7.5, 150 mM KCl, 5 mM MgCl2", "key": {"[1]": {"tested_on": "40S ribosomal subunit (HeLa or RRL, used interchangeably) (Homo sapiens or rabbit)", "assay": "EMSA"}, "[2]": {"tested_on": "40S ribosomal subunit (RRL) (rabbit (reticulocyte lysate))", "assay": "EMSA"}, "[3]": {"tested_on": "40S ribosomal subunit (HeLa) (Homo sapiens (HeLa))", "assay": "EMSA"}, "[4]": {"tested_on": "80S ribosome", "assay": "EMSA"}, "[5]": {"tested_on": "40S ribosomal subunit (HeLa or RRL, used interchangeably);eIF3 (preparation not specified) (Homo sapiens or rabbit;Homo sapiens?)", "assay": "filter binding"}, "[6]": {"tested_on": "40S ribosomal subunit (HeLa or RRL, used interchangeably) (Homo sapiens or rabbit)", "assay": "filter binding"}, "[7]": {"tested_on": "eIF3 (preparation not specified)", "assay": "filter binding"}}, "data": [{"substance": "AGGUUGGGGUAAACACUCCGGCCUCUUAAGCCAUUUCCUGUUUUUUUUUUUUUUUUUUUUUUUUUUUUCUUUUUUUUUUUCUUUCCUUUCCUUCUUUUUUUCCUUUCUUUUUCCCUUCUUUAAUGGUGGCUCCAUCUUAGCCCUAGUCACGGCUAGCUGUGAAAGGUCCGUGAGCCGCAUGACUGCAGAGAGUGCUGAUACUGGCCUCUCUGCAGAUCAUGU [HCV 3'UTR genotype 1a]", "values": [{"measurement": "Kd", "setting": "[1]", "value": 6.7, "unit": "nM"}]}, {"substance": "UAGACGAGCGGCCCUAAACAACACUCCAUAACAUUUUUUUUUUUUUUUUUUUUUUUUUUUUUUUUUUUUUUUUUUUUUUUUUUUUUUUUUUUUUUUCUUUCUUAUCUGUCUAUCCCUUAGACUCCUUCUUUGGUGGCUCCAUCUUAGCCCUAGUCACGGCUAGCUGUGAAAGGUCCGUGAGCCGCAUGACUGCAGAGAGUGCUGAUACUGGCCUCUCUGCAGUUCAUGU [HCV 3'UTR genotype 6b]", "values": [{"measurement": "Kd", "setting": "[1]", "value": 6.7, "unit": "nM"}]}, {"substance": "HCV 3'UTR genotype 2a", "values": [{"measurement": "Kd", "setting": "[1]", "value": 3.5, "unit": "nM"}]}, {"substance": "HCV 3'UTR genotype 3a", "values": [{"measurement": "Kd", "setting": "[1]", "value": 3.7, "unit": "nM"}]}, {"substance": "HCV 3'UTR", "values": [{"measurement": "Kd", "setting": "[2]", "value": 5.4, "unit": "nM"}, {"measurement": "Kd", "setting": "[3]", "value": 1.8, "unit": "nM"}, {"measurement": "Kd", "setting": "[4]", "value": 11.8, "unit": "nM"}, {"measurement": "Kd", "setting": "[5]", "value": 1, "unit": "nM"}, {"measurement": "Kd", "setting": "[6]", "value": 1.8, "unit": "nM"}, {"measurement": "Kd", "setting": "[7]", "value": 8.9, "unit": "nM"}]}, {"substance": "HCV 3'UTR genotype 1b", "values": [{"measurement": "Kd", "setting": "[1]", "value": 4.7, "unit": "nM"}]}]}
